Target: T1, NR-LU-10 antigen (Homo sapiens, UniProt P16422)
T1 construct: Positive NR-LU-10 tissue reactivity indicates NR-LU-10 antigen expression by such tissues; from tissue; host or cells: carcinoma and normal tissue specimens
T1 sequence (P16422 24-314): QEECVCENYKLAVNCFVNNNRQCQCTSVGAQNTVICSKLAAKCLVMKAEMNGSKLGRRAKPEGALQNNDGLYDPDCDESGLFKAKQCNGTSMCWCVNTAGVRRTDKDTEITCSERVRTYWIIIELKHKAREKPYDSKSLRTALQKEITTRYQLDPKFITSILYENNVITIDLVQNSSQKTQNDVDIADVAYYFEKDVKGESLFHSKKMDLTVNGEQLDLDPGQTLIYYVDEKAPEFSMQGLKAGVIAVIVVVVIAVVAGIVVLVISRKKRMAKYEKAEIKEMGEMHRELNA
Experiment: NR-LU-10 reactivity with normal tissues (Table B)
Format: binding
From the text: Radioimmunoassays, immunoprecipitation and Fluorescence-Activated Cell Sorter (FACS) analysis were used to obtain reactivity profiles of NR-LU-10. The NR-LU-10 target antigen was present on either fixed cultured cells or in detergent extracts of various types of cancer cells. For example, the NR-LU-10 antigen is found in small cell lung, non-small cell lung, colon, breast, renal, ovarian, pancreatic, and other carcinoma tissues. Tumor reactivity of the NR-LU-10 antibody is set forth in Table A, while NR-LU-10 reactivity with normal tissues is set forth in Table B. The values in Table B are obtained as described below. Positive NR-LU-10 tissue reactivity indicates NR-LU-10 antigen expression by such tissues.
The tissue specimens were scored in accordance with three reactivity parameters: (1) the intensity of the reaction; (2) the uniformity of the reaction within the cell type; and (3) the percentage of cells reactive with the antibody. These three values are combined into a single weighted comparative value between 0 and 500, with 500 being the most intense reactivity. This comparative value facilitates comparison of different tissues. Table B includes a summary reactivity value, the number of tissue samples examined and the number of samples that reacted positively with NR-LU-10.

[1] = Salivary Gland: Acinar Epithelium
[2] = Salivary Gland: Duct Epithelium
[3] = Spleen: Lymphoid Follicle-Central
[4] = Spleen: Lymphoid Follicle-Peripheral
[5] = Spleen: Trabecular Smooth Muscle
[6] = Stomach: Muscularis Mucosa/Externa
[7] = Stromal Tissue: Arteriolar Smooth Muscle
[8] = Stromal Tissue: Fibrous Connective Tissue
[9] = Stromal Tissue: Mast Cells/Eosinophils
[10] = Tonsil: Lymphoid Follicle-Central
[11] = Tonsil: Lymphoid Follicle-Peripheral
[12] = Urinary Bladder: Mucosal Epithelium
[13] = Vagina/Cervix: Epithelial Glands
[14] = Vagina/Cervix: Squamous Epithelium

B1: NR-LU-10: 150 kilodalton IgG2b monoclonal antibody recognizing an approximately 40 kilodalton glycoprotein antigen expressed on most carcinomas (antibody, V domains shown)
VH: EVQLQQSGAELVKPGASVRLSCTASGFNIKDTYMHWVIERPEQGLEWIGRIDPANGNTKCDPKFQGKATITADTSSNTAYLQLSSLTSEDTAVYYCSREVLTGTWSLDYWGQGTSVTVSS
VL: DIQMIQSPSSMFASLGDRVSLSCRASQGIRGNLDWYQQKPGGTIKLLIYSTSNLNSGVPSRFSGSGSGSDYSLTISSLDSEDFADYYCLQRNAYPYTFGGGTKLEIK
Nerve: Endoneurium
  Summary Reactivity: 0
Nerve: Neurolemma
  # Pos/Exam: 0/2
  Summary Reactivity: 0
Nerve: Neuron
  # Pos/Exam: 0/2
  Summary Reactivity: 0
Nerve: Perineurium
  # Pos/Exam: 0/2
  Summary Reactivity: 0
Ovary: Corpus Luteum
  # Pos/Exam: 0/3
  Summary Reactivity: 0
Ovary: Eipthelium
  # Pos/Exam: 1/1
  Summary Reactivity: 270
Ovary: Granulosa
  # Pos/Exam: 1/3
  Summary Reactivity: 400
Ovary: Serosa
  # Pos/Exam: 0/3
  Summary Reactivity: 0
Ovary: Theca
  # Pos/Exam: 0/3
  Summary Reactivity: 0
Oviduct: Epithelium
  # Pos/Exam: 1/1
  Summary Reactivity: 500
Oviduct: Smooth Muscle
  # Pos/Exam: 0/3
  Summary Reactivity: 0
Pancreas: Acinar Cell
  # Pos/Exam: 3/3
  Summary Reactivity: 500
Pancreas: Duct Epthelium
  # Pos/Exam: 3/3
  Summary Reactivity: 500
Pancreas: Islet Cell
  # Pos/Exam: 3/3
  Summary Reactivity: 500
Peritoneum: Mesothelium
  # Pos/Exam: 0/1
  Summary Reactivity: 0
Pituitary: Adenohypophysis
  # Pos/Exam: 2/2
  Summary Reactivity: 500
Pituitary: Neurohypophysis
  # Pos/Exam: 0/2
  Summary Reactivity: 0
Placenta: Trophoblasts
  # Pos/Exam: 0/3
  Summary Reactivity: 0
Prostate: Concretions
  # Pos/Exam: 0/3
  Summary Reactivity: 0
Prostate: Glandular Epithelium
  # Pos/Exam: 3/3
  Summary Reactivity: 400
Prostate: Smooth Muscle
  # Pos/Exam: 0/3
  Summary Reactivity: 0
Rectum: Lymph Node
  # Pos/Exam: 0/2
  Summary Reactivity: 0
Rectum: Mucosal Epithelium
  # Pos/Exam: 0/2
  Summary Reactivity: 0
Rectum: Muscularis Externa
  # Pos/Exam: 0/1
  Summary Reactivity: 0
Rectum: Muscularis Mucosa
  # Pos/Exam: 0/3
  Summary Reactivity: 0
Rectum: Nerve Ganglia
  # Pos/Exam: 0/3
  Summary Reactivity: 0
[1]
  # Pos/Exam: 3/3
  Summary Reactivity: 500
[2]
  # Pos/Exam: 3/3
  Summary Reactivity: 500
Skin: Apocrine Glands
  # Pos/Exam: 3/3
  Summary Reactivity: 280
Skin: Basal Layer
  # Pos/Exam: 3/3
  Summary Reactivity: 33
Skin: Epithelium
  # Pos/Exam: 1/3
  Summary Reactivity: 10
Skin: Follicle
  # Pos/Exam: 1/1
  Summary Reactivity: 190
Skin: Stratum Corneum
  # Pos/Exam: 0/3
  Summary Reactivity: 0
Spinal Cord: Axons, Myelinated
  # Pos/Exam: 0/2
  Summary Reactivity: 0
Spinal Cord: Microglial
  # Pos/Exam: 0/2
  Summary Reactivity: 0
Spinal Cord: Neurons
  # Pos/Exam: 0/2
  Summary Reactivity: 0
[3]
  # Pos/Exam: 0/3
  Summary Reactivity: 0
[4]
  # Pos/Exam: 0/3
  Summary Reactivity: 0
[5]
  # Pos/Exam: 0/3
  Summary Reactivity: 0
Stomach: Chief Cells
  # Pos/Exam: 3/3
  Summary Reactivity: 290
Stomach: Mucosal Epithelium
  # Pos/Exam: 3/3
  Summary Reactivity: 367
[6]
  # Pos/Exam: 0/3
  Summary Reactivity: 0
Stomach: Parietal Cells
  # Pos/Exam: 3/3
  Summary Reactivity: 290
Stomach: Smooth Muscle
  # Pos/Exam: 0/3
  Summary Reactivity: 0
Stromal Tissue: Adipose
  # Pos/Exam: 0/63
  Summary Reactivity: 0
[7]
  # Pos/Exam: 0/120
  Summary Reactivity: 0
Stromal Tissue: Endothelium
  # Pos/Exam: 0/120
  Summary Reactivity: 0
[8]
  # Pos/Exam: 0/120
  Summary Reactivity: 0
Stromal Tissue: Macrophages
  # Pos/Exam: 0/117
  Summary Reactivity: 0
[9]
  # Pos/Exam: 0/86
  Summary Reactivity: 0
Testis: Interstitial Cells
  # Pos/Exam: 0/3
  Summary Reactivity: 0
Testis: Sertoli Cells
  # Pos/Exam: 3/3
  Summary Reactivity: 93
Thymus: Hassal's Epithelium
  # Pos/Exam: 3/3
  Summary Reactivity: 147
Thymus: Hassal's Keratin
  # Pos/Exam: 3/3
  Summary Reactivity: 333
Thymus: Lymphoid Cortex
  # Pos/Exam: 0/3
  Summary Reactivity: 0
Thymus: Lymphoid Medulla
  # Pos/Exam: 3/3
  Summary Reactivity: 167
Thyroid: C-Cells
  # Pos/Exam: 0/3
  Summary Reactivity: 0
Thyroid: Colloid
  # Pos/Exam: 0/3
  Summary Reactivity: 0
Thyroid: Follicular Epithelium
  # Pos/Exam: 3/3
  Summary Reactivity: 500
Tonsil: Epithelium
  # Pos/Exam: 1/3
  Summary Reactivity: 500
[10]
  # Pos/Exam: 0/3
  Summary Reactivity: 0
[11]
  # Pos/Exam: 0/3
  Summary Reactivity: 0
Tonsil: Mucus Gland
  # Pos/Exam: 1/1
  Summary Reactivity: 300
Tonsil: Striated Muscle
  # Pos/Exam: 0/3
  Summary Reactivity: 0
Umbilical Cord: Epithelium
  # Pos/Exam: 0/3
  Summary Reactivity: 0
[12]
  # Pos/Exam: 3/3
  Summary Reactivity: 433
Urinary Bladder: Serosa
  # Pos/Exam: 0/1
  Summary Reactivity: 0
Urinary Bladder: Smooth Muscle
  # Pos/Exam: 0/3
  Summary Reactivity: 0
Uterus: Endometrial Epithelium
  # Pos/Exam: 3/3
  Summary Reactivity: 500
Uterus: Endometrial Glands
  # Pos/Exam: 3/3
  Summary Reactivity: 500
Uterus: Smooth Muscle
  # Pos/Exam: 0/3
  Summary Reactivity: 0
[13]
  # Pos/Exam: 1/1
  Summary Reactivity: 500
Vagina/Cervix: Smooth Muscle
  # Pos/Exam: 0/2
  Summary Reactivity: 0
[14]
  # Pos/Exam: 1/1
  Summary Reactivity: 200
